# Source: IntAct's records for PubMed 24469400
# B1: Syntaxin-4 (Rattus norvegicus (Rat)), Q08850 (parent)
# chain: MRDRTHELRQGDNISDDEDEVRVALVVHSGAARLSSPDDEFFQKVQTIRQTMAKLESKVRELEKQQVTILATPLPEESMKQGLQNLREEIKQLGREVRAQLKAIEPQKEEADENYNSVNTRMKKTQHGVLSQQFVELINKCNSMQSEYREKNVERIRRQLKITNAGMVSDEELEQMLDSGQSEVFVSNILKDTQVTRQALNEISARHSEIQQLERSIRELHEIFTFLATEVEMQGEMINRIEKNILSSADYVERGQEHVKIALENQKKARKKKVMIAICVSVTVLILAVIIGITITVG
# Variants of: B1
# Settings: with vamp2_rat Vamp2, P63045
# vamp2_rat Vamp2, P63045, sequence (P63045 whole entry): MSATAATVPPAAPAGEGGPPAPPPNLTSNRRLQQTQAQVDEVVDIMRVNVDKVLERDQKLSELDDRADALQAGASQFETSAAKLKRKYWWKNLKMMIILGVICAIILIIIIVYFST
row,Variant,effect of a mutation on the interaction
1,MRDRTHELRQGDNISDDEDEVRVALVVHSGAARLSSPDDEFFQKVQTIRQTMAKLESKVRELEKQQVTILATPLPEESMKQGLQNLREEIKQLGREVRAQLKAIEPQKEEADENYNSVNTRMKKTQHGVLSQQFVELINKCNSMQSEYREKNVERIRRQLKITNAGMVSDEEAAQMLDSGQSEVFVSNILKDTQVTRQALNEISARHSEIQQLERSIRELHEIFTFLATEVEMQGEMINRIEKNILSSADYVERGQEHVKIALENQKKARKKKVMIAICVSVTVLILAVIIGITITVG [L173A;E174A],increasing interaction strength
